Laboratory results: US20250277029A1 (Amgen, published 2025)

Assays:
huCB1 nanodisc (CB1-ND) = target: T1, huCB1 nanodisc (CB1-ND) (human, UniProt P21554 99-414); experiment: Octet BLI; antibody captured by anti-human Fc, CB1-nanodisc in solution, 1:1 model
T1 construct: The His-tagged CB1 is embedded in a POPC lipid nanodisc with MSP1D1 scaffold protein (molar ratio 480:8:1); also called huCB1-ND; #CB1-008

[1] = target: T2, human cannabinoid receptor 1 (huCB1), full length, expressed on cells (human, UniProt P21554 1-472); experiment: KinExA on-cell ranking, HEK 293T cells expressing full length CB1; %IFF of LIBC523661 divided by %IFF of antibody
T2 construct: Used for all assays on cells: stably transfected CHO / CHOK1 cells (cAMP assays) and transiently transfected HEK 293T cells (KinExA, FACS); also called Full length hu CB1; wt huCB1
T2 sequence (P21554 whole entry): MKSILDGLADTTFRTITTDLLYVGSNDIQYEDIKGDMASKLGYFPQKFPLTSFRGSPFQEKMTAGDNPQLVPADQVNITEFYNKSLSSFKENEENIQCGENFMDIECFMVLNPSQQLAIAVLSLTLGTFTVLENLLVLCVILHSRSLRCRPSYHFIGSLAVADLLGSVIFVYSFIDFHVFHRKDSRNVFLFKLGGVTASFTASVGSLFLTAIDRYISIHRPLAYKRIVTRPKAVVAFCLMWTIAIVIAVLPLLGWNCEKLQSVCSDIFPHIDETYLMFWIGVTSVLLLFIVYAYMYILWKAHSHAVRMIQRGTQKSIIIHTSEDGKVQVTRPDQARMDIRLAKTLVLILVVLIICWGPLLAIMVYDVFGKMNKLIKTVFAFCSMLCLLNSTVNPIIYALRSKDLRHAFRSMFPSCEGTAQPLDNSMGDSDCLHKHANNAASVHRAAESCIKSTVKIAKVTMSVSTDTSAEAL

[2] = target: T2, human cannabinoid receptor 1 (huCB1), …; experiment: cell-based or functional assay
[3] = target: T2, human cannabinoid receptor 1 (huCB1), …; experiment: cell-based or functional assay; remark: listed apart in the source
[4] = target: T2, human cannabinoid receptor 1 (huCB1), …; experiment: cell-based or functional assay; remark: listed apart in the source
mouse CB1 [5] = target: T3, mouse CB1 (mouse, UniProt P47746 1-473); experiment: binding to muCB1, fold over mock (method not described)
T3 construct: also called muCB1; murine CB1
T3 sequence (P47746 whole entry): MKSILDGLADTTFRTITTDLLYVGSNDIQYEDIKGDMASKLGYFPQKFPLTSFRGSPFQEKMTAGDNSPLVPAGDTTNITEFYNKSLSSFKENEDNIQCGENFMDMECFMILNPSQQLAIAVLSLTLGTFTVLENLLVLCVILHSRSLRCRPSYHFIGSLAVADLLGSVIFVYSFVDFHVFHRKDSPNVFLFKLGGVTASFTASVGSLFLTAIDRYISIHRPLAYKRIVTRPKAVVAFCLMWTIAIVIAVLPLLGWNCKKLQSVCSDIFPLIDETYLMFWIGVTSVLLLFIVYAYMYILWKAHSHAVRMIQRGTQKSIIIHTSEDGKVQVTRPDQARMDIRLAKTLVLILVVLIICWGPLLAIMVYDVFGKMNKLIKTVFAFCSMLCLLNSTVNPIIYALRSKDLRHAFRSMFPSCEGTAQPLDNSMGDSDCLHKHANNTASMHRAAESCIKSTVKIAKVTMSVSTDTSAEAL

[6] = target: T4, GFP-fused huCB1-SMALP (human CB1 in styrene maleic acid lipoparticles) (human, UniProt P21554 1-472); experiment: flow cytometry, yeast-displayed IgG, GFP MFI
T4 construct: Prepared as in Luna V. et al. 2018; also called huCB1-GFP-SMALP; wtCB1-SMALP; not shown: GFP fusion
T4 sequence (P21554 whole entry, the tested form may be a part): as the sequence (P21554 whole entry) above

[7] = target: T4, GFP-fused huCB1-SMALP (human CB1 in …); experiment: flow cytometry on IgG-displaying yeast, 100 nM GFP-fused huCB1-SMALP, GFP in BB515-A (y) vs AlexaFluor647 anti-huFab display in APC-A (x)
[8] = target: T5, His-tagged huCB1-ND (human CB1 in nanodisc) (human); experiment: flow cytometry, yeast-displayed IgG, binding/display ratio
T5 construct: CB1 construct of Cell 167(3) (2016) 750-762 expressed in Sf9 cells; POPC:MSP1D1:CB1 480:8:1; also called CB1-nanodisc; huCB1-Nanodisc; not shown: histidine purification tag
T5 sequence (P21554 99-414): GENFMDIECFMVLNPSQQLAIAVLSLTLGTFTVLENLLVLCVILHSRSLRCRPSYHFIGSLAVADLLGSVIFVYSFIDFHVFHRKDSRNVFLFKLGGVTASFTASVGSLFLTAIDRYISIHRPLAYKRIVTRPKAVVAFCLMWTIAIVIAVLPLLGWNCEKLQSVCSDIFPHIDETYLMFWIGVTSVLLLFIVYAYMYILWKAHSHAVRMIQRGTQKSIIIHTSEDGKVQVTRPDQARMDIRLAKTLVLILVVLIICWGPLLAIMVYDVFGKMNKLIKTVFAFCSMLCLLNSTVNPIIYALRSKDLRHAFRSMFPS

[9] = target: T5, His-tagged huCB1-ND (human CB1 in …); experiment: flow cytometry, yeast-displayed IgG, huCB1-ND over empty-ND
[10] = target: T6, human cannabinoid receptor type 2 (CB2) (human, UniProt P34972 1-360); experiment: binding to huCB2, fold over mock (method not described)
T6 construct: also called huCB2; full length hu CB2
T6 sequence (P34972 whole entry): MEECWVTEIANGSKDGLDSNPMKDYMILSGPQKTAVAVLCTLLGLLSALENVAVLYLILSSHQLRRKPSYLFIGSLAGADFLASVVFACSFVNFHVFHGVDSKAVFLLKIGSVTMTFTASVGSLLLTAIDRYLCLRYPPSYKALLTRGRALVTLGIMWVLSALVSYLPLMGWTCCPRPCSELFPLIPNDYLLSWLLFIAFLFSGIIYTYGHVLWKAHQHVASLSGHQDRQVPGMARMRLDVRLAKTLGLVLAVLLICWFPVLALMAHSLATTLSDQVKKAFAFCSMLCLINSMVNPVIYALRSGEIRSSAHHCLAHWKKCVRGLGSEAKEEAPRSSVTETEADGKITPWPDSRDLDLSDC

[11] = target: T5, His-tagged huCB1-ND (human CB1 in …); experiment: flow cytometry on IgG-displaying yeast, 0.2 nM His-tagged huCB1 nanodisc, APC anti-His (y) vs PE anti-huFc display (x)
mouse CB1 [12] = target: T3, mouse CB1; experiment: fold over mock (Table 14)
[13] = target: T6, human cannabinoid receptor type 2 (CB2); experiment: fold over mock (Table 14)
[14] = target: T4, GFP-fused huCB1-SMALP (human CB1 in …); experiment: flow cytometry, yeast-displayed IgG, GFP MFI; remark: listed apart in the source
[15] = target: T7, empty-ND (nanodisc without CB1); experiment: flow cytometry, yeast-displayed IgG, binding/display ratio
T7 construct: its only protein is the nanodisc scaffold; also called Empty Nanodisc

[16] = target: T5, His-tagged huCB1-ND (human CB1 in …); experiment: as above; remark: listed apart in the source

T1 sequence (P21554 99-414 limits assumed): as the sequence (P21554 99-414) above

Binder | Kd (huCB1 nanodisc (CB1-ND)) | koff (huCB1 nanodisc (CB1-ND)) | kon (huCB1 nanodisc (CB1-ND)) | Relative binding (KinExA, on cell; vs LIBC523661 mAb) [1] | Mean IC50 (nM, n = 3), cAMP antagonist assay [2] | IC50, nM (CP agonist) [3] | Mean IC50 (nM), cAMP antagonist assay [4] | Mean IC50, -fold vs Rimo [4] | n = 1 IC50 (nM), cAMP antagonist assay [4] | n = 1 IC50, -fold vs Rimo [4] | n = 2 IC50 (nM), cAMP antagonist assay [4] | n = 2 IC50, -fold vs Rimo [4] | Fold over mock (mouse CB1 [5]) | Fold over mock [10] | binding result (mouse CB1 [12]) | binding result [13] | further results
LIBC524049-1 (antibody, V domains shown, Expressed as IgG1 SEFL2 mAb) VH: QVQLQESGPGLVKPSQTLSLTCTVSGGSIRRGGDYWSWIRQHPGKGLEWIGHIYYTGSTAYNPSLKSRATISVNTYKNQFSLKLSSVTAADTAVYYCARDYDILTGYSYYYYGMDVWGQGTTVTVSS VL: not shown | 15 nM | 0.000904 s⁻¹ | 59000 M⁻¹ s⁻¹ | 1.5 ratio | 3.71 nM | 3.7 nM | 2.87 nM | 0.96 fold vs Rimonabant | 4.41 nM | 1.05 fold vs Rimonabant | 1.34 nM | 0.75 fold vs Rimonabant | – | – | – | – | –
LIBC527919-1 (antibody, V domains shown, Expressed as IgG1 SEFL2 mAb) VH: QVQLQESGPGLVKPSQTLSLTCTVSGGSIRRGGDYWAWIRQHPGKGLEWIGHVYQTGSTAYNPNFKDRATISVNTYKNQFSLKLSSVTAADTAVYYCARNYDALSGYSYYYYGMDVWGQGTTVTVSS VL: DIQLTQSPSSLSASVGDRVTITCRASQSIISYLNWYQQKPGKAPKLLIYAASSLRSGVPSRFSGSGSGTDFTLTISSLQPEDFATYYCQQYSNYPLTFGGGTRVEIKR | 60 nM | 0.00339 s⁻¹ | 56200 M⁻¹ s⁻¹ | 2.9 ratio | 3.01 nM | 3 nM | 3.44 nM | 1.15 fold vs Rimonabant | 5.09 nM | 1.21 fold vs Rimonabant | 1.8 nM | 1 fold vs Rimonabant | – | – | – | – | –
LIBC524049-1 (antibody, IgG1, V domains shown) VH: QVQLQESGPGLVKPSQTLSLTCTVSGGSIRRGGDYWSWIRQHPGKGLEWIGHIYYTGSTAYNPSLKSRATISVNTYKNQFSLKLSSVTAADTAVYYCARDYDILTGYSYYYYGMDVWGQGTTVTVSS VL: not shown | – | – | – | – | – | – | – | – | – | – | – | – | 0.8 fold | 1 fold | no binding | no binding | 100 nM huCB1-SMALP binding (normalized to 10D10) [6]: 5.51 fold; % of events in the upper right quadrant (display-positive, binding-positive) [7]: 24.8%; relative binding to 0.2 nM huCB1-ND (relative to 10D10N35Y) [8]: 5.01 fold; specific huCB1 binding (CB1 ND/Empty ND ratio) [9]: 9.5 ratio; % of events in the upper right quadrant (display-positive, binding-positive) [11]: 39.9%
LIBC527997-1 (antibody, IgG1, V domains shown) VH: QVQLQESGPGLVKPSQTLSLTCTVSGGSIRRGGDYWAWIRQHPGKGLEWIGHIYQTGSTNYNPRFKGRATISVNTYKNQFSLKLSSVTAADTAVYYCARNYDTLTGYSYYYYGMDVWGQGTTVTVSS VL: DIQMTQSPSSLSASVGDRVTITCRASQSISNYLNWYQQKPGKAPKLLIYAASSLHSGVPSRFSGSGSGTDFTLTISSLQPEDFASYYCQQYQSYPLTFGQGTKVEIKR | – | – | – | – | – | – | – | – | – | – | – | – | 1 fold | 0.8 fold | no binding | no binding | 100 nM huCB1-GFP-SMALP binding (normalized to 10D10N35Y) [14]: 6.63 fold; 50.0 nM Empty Nanodisc binding (relative to 10D10N35Y) [15]: 0.44 fold; 0.200 nM huCB1-Nanodisc binding (relative to 10D10N35Y) [16]: 6.38 fold
LIBC527997-1 (antibody, V domains shown, Expressed as IgG1 SEFL2 mAb) VH: QVQLQESGPGLVKPSQTLSLTCTVSGGSIRRGGDYWAWIRQHPGKGLEWIGHIYQTGSTNYNPRFKGRATISVNTYKNQFSLKLSSVTAADTAVYYCARNYDTLTGYSYYYYGMDVWGQGTTVTVSS VL: DIQMTQSPSSLSASVGDRVTITCRASQSISNYLNWYQQKPGKAPKLLIYAASSLHSGVPSRFSGSGSGTDFTLTISSLQPEDFASYYCQQYQSYPLTFGQGTKVEIKR | 26 nM | 0.00136 s⁻¹ | 51800 M⁻¹ s⁻¹ | 2.1 ratio | 2.54 nM | 2.5 nM | 2.97 nM | 0.99 fold vs Rimonabant | 4.37 nM | 1.04 fold vs Rimonabant | 1.57 nM | 0.88 fold vs Rimonabant | – | – | – | – | –
